Assay results reported in ChEMBL document CHEMBL1212772.

How the values were obtained:
[1] = compound: C[C@@H](O)[C@H]1C(=O)N2C(C(=O)O)=C(S[C@@H]3CN[C@H](C(=O)N(C)C)C3)[C@H](C)[C@H]12; test: (§1) Inhibition of Pseudomonas aeruginosa AmpC assessed as inhibition of nitrocefin hydrolysis
[2] = compound: C[C@@H](O)[C@H]1C(=O)N2C(C(=O)O)=C(SCCNC=N)C[C@H]12; test: as §1
[3] = compound: C[C@@H](O)[C@H]1C(=O)N2C(C(=O)O)=C(S[C@@H]3CN[C@H](CNS(N)(=O)=O)C3)[C@H](C)[C@H]12; test: as §1
[4] = substrate: C[C@@H](O)[C@H]1C(=O)N2C(C(=O)O)=C(S[C@@H]3CN[C@H](C(=O)N(C)C)C3)[C@H](C)[C@H]12; test: (§2) Activity of Pseudomonas aeruginosa AmpC
[5] = substrate: CC1(C)S[C@@H]2[C@H](NC(=O)Cc3ccccc3)C(=O)N2[C@H]1C(=O)O; test: as §2
[6] = substrate: C[C@@H](O)[C@H]1C(=O)N2C(C(=O)O)=C(SCCNC=N)C[C@H]12; test: as §2
[7] = substrate: O=C(Cc1cccs1)N[C@@H]1C(=O)N2C(C(=O)[O-])=C(C[n+]3ccccc3)CS[C@H]12; test: as §2
[8] = substrate: C[C@@H](O)[C@H]1C(=O)N2C(C(=O)O)=C(S[C@@H]3CN[C@H](CNS(N)(=O)=O)C3)[C@H](C)[C@H]12; test: as §2
[9] = substrate: O=C(Cc1cccs1)N[C@@H]1C(=O)N2C(C(=O)O)=C(/C=C/c3ccc([N+](=O)[O-])cc3[N+](=O)[O-])CS[C@H]12; test: as §2
[10] = substrate: C[C@@H](O)[C@H]1C(=O)N2C(C(=O)O)=C(S[C@@H]3CN[C@H](C(=O)N(C)C)C3)[C@H](C)[C@H]12; test: (§3) Kcat/Km ratio of Pseudomonas aeruginosa AmpC
[11] = substrate: CC1(C)S[C@@H]2[C@H](NC(=O)Cc3ccccc3)C(=O)N2[C@H]1C(=O)O; test: as §3
[12] = substrate: C[C@@H](O)[C@H]1C(=O)N2C(C(=O)O)=C(SCCNC=N)C[C@H]12; test: as §3
[13] = substrate: O=C(Cc1cccs1)N[C@@H]1C(=O)N2C(C(=O)[O-])=C(C[n+]3ccccc3)CS[C@H]12; test: as §3
[14] = substrate: C[C@@H](O)[C@H]1C(=O)N2C(C(=O)O)=C(S[C@@H]3CN[C@H](CNS(N)(=O)=O)C3)[C@H](C)[C@H]12; test: as §3
[15] = substrate: O=C(Cc1cccs1)N[C@@H]1C(=O)N2C(C(=O)O)=C(/C=C/c3ccc([N+](=O)[O-])cc3[N+](=O)[O-])CS[C@H]12; test: as §3
[16] = compound: C[C@@H](O)[C@H]1C(=O)N2C(C(=O)O)=C(S[C@@H]3CN[C@H](C(=O)N(C)C)C3)[C@H](C)[C@H]12; test: (§4) Inhibition of Escherichia coli CMY-2 assessed as inhibition of nitrocefin hydrolysis
[17] = compound: C[C@@H](O)[C@H]1C(=O)N2C(C(=O)O)=C(SCCNC=N)C[C@H]12; test: as §4
[18] = substrate: C[C@@H](O)[C@H]1C(=O)N2C(C(=O)O)=C(S[C@@H]3CN[C@H](C(=O)N(C)C)C3)[C@H](C)[C@H]12; test: (§5) Activity of Escherichia coli CMY-2
[19] = substrate: CC1(C)S[C@@H]2[C@H](NC(=O)Cc3ccccc3)C(=O)N2[C@H]1C(=O)O; test: as §5
[20] = substrate: CC(C)(O/N=C(\C(=O)N[C@@H]1C(=O)N2C(C(=O)[O-])=C(C[n+]3ccccc3)CS[C@H]12)c1csc(N)n1)C(=O)O; test: as §5
[21] = substrate: C[C@@H](O)[C@H]1C(=O)N2C(C(=O)O)=C(SCCNC=N)C[C@H]12; test: as §5
[22] = substrate: O=C(Cc1cccs1)N[C@@H]1C(=O)N2C(C(=O)[O-])=C(C[n+]3ccccc3)CS[C@H]12; test: as §5
[23] = substrate: C[C@@H](O)[C@H]1C(=O)N2C(C(=O)O)=C(S[C@@H]3CN[C@H](CNS(N)(=O)=O)C3)[C@H](C)[C@H]12; test: as §5
[24] = substrate: O=C(Cc1cccs1)N[C@@H]1C(=O)N2C(C(=O)O)=C(/C=C/c3ccc([N+](=O)[O-])cc3[N+](=O)[O-])CS[C@H]12; test: as §5
[25] = substrate: C[C@@H](O)[C@H]1C(=O)N2C(C(=O)O)=C(S[C@@H]3CN[C@H](C(=O)N(C)C)C3)[C@H](C)[C@H]12; test: (§6) Kcat/Km ratio of Escherichia coli CMY-2
[26] = substrate: CC1(C)S[C@@H]2[C@H](NC(=O)Cc3ccccc3)C(=O)N2[C@H]1C(=O)O; test: as §6
[27] = substrate: CC(C)(O/N=C(\C(=O)N[C@@H]1C(=O)N2C(C(=O)[O-])=C(C[n+]3ccccc3)CS[C@H]12)c1csc(N)n1)C(=O)O; test: as §6
[28] = substrate: C[C@@H](O)[C@H]1C(=O)N2C(C(=O)O)=C(SCCNC=N)C[C@H]12; test: as §6
[29] = substrate: O=C(Cc1cccs1)N[C@@H]1C(=O)N2C(C(=O)[O-])=C(C[n+]3ccccc3)CS[C@H]12; test: as §6
[30] = substrate: C[C@@H](O)[C@H]1C(=O)N2C(C(=O)O)=C(S[C@@H]3CN[C@H](CNS(N)(=O)=O)C3)[C@H](C)[C@H]12; test: as §6
[31] = substrate: O=C(Cc1cccs1)N[C@@H]1C(=O)N2C(C(=O)O)=C(/C=C/c3ccc([N+](=O)[O-])cc3[N+](=O)[O-])CS[C@H]12; test: as §6

B1: Beta-lactamase (Pseudomonas aeruginosa (strain ATCC 15692 / PAO1 / 1C / PRS 101 / LMG12228)), P24735 (protein)
chain: MRDTRFPCLCGIAASTLLFATTPAIAGEAPADRLKALVDAAVQPVMKANDIPGLAVAISLKGEPHYFSYGLASKEDGRRVTPETLFEIGSVSKTFTATLAGYALTQDKMRLDDRASQHWPALQGSRFDGISLLDLATYTAGGLPLQFPDSVQKDQAQIRDYYRQWQPTYAPGSQRLYSNPSIGLFGYLAARSLGQPFERLMEQQVFPALGLEQTHLDVPEAALAQYAQGYGKDDRPLRVGPGPLDAEGYGVKTSAADLLRFVDANLHPERLDRPWAQALDATHRGYYKVGDMTQGLGWEAYDWPISLKRLQAGNSTPMALQPHRIARLPAPQALEGQRLLNKTGSTNGFGAYVAFVPGRDLGLVILANRNYPNAERVKIAYAILSGLEQQGKVPLKR
B1 was tested, and the Km [1] was 1.4 µM, the Km [2] was 1.6 µM and the Km [3] was 1.8 µM. For the same protein, the kcat [4] was under 0.006 s⁻¹, the Km [5] was 14 µM and the kcat [6] was under 0.03 s⁻¹. The Km [7] was 350 µM, the kcat [8] was under 0.006 s⁻¹ and the Km [9] was 31 µM. For the same protein, the kcat [9] was 150 s⁻¹, the kcat/Km [10] was under 4300 M⁻¹ s⁻¹ and the kcat/Km [11] was 3.1e+06 M⁻¹ s⁻¹. It also gave a kcat/Km [12] of under 4.8e+06 M⁻¹ s⁻¹, a kcat/Km [13] of 270000 M⁻¹ s⁻¹ and a kcat/Km [14] of under 3300 M⁻¹ s⁻¹. The kcat/Km [15] was 4.8e+06 M⁻¹ s⁻¹.

B2: Beta-lactamase (Escherichia coli), Q53TY8 (protein)
chain: MMKKSLCCALLLTASFSTFAAAKTEQQIADIVNRTITPLMQEQAIPGMAVAVIYQGKPYYFTWGKADIANNHPVTQQTLFELGSVSKTFNGVLGGDAIARGEIKLSDPVTKYWPELTGKQWQGIRLLHLATYTAGGLPLQIPDDVRDKAALLHFYQNWQPQWTPGAKRLYANSSIGLFGALAVKPSGMSYEEAMTRRVLQPLKLAHTWITVPQNEQKDYAWGYREGKPVHVSPGQLDAEAYGVKSSVIDMARWVQANMDASHVQEKTLQQGIALAQSRYWRIGDMYQGLGWEMLNWPLKADSIINGSDSKVALAALPAVEVNPPAPAVKASWVHKTGSTGGFGSYVAFVPEKNLGIVMLANKSYPNPVRVEAAWRILEKLQ
With B2 the Km [16] was 0.06 µM, the Km [17] was 0.31 µM and the kcat [18] was 8.1e-05 s⁻¹. For the same protein, the Km [19] was 2.2 µM, the kcat [19] was 22 s⁻¹ and the Km [20] was 4.5 µM. For the same protein, the kcat [20] was 0.0035 s⁻¹, the kcat [21] was under 0.031 s⁻¹ and the Km [22] was 290 µM. For the same protein, the kcat [22] was 710 s⁻¹, the kcat [23] was 7.2e-05 s⁻¹ and the Km [24] was 40 µM. For the same protein, the kcat [24] was 1700 s⁻¹, the kcat/Km [25] was 1400 M⁻¹ s⁻¹ and the kcat/Km [26] was 1e+07 M⁻¹ s⁻¹. The kcat/Km [27] was 780 M⁻¹ s⁻¹, the kcat/Km [28] was 100000 M⁻¹ s⁻¹ and the kcat/Km [29] was 2.4e+06 M⁻¹ s⁻¹. The kcat/Km [30] was 16000 M⁻¹ s⁻¹ and the kcat/Km [31] was 4.3e+07 M⁻¹ s⁻¹.
